In paper PMC2651629, “Structure of the Archaeal Pab87 Peptidase Reveals a Novel Self-Compartmentalizing Protease Family” (PLoS ONE, 2009):

Assays:
[1] = target: Pyrococcus abyssi Pab87 protein (Pyrococcus abyssi); assay: crystal structure; Pab87 co-crystallised with Lu-HPDO3A (200 mM), 20 mM CaCl2, 30% MPD, 100 mM sodium acetate pH 4.6, 18°C; space group P1, eight molecules per asymmetric unit; 2.2 Å
[2] = target: Pyrococcus abyssi Pab87 protein (Pyrococcus abyssi); assay: cryo-EM structure; 0.5 mg/mL Pab87 in 50 mM Tris-HCl pH 8.5, 350 mM NaCl; single-particle reconstruction at around 14 Å, fitted with the X-ray structure
[3] = target: Pyrococcus abyssi Pab87 protein (Pyrococcus abyssi); assay: AUC; sedimentation velocity, 20°C, 40,000 rpm, 10 µM protein in 150 mM Tris pH 8.5, 350 mM NaCl; c(s) and c(M) distributions (Sedfit)

- stoichiometry N [1]: 8
- stoichiometry N [2]: 8
- stoichiometry N [3]: 8
Substance: Pyrococcus abyssi Pab87 protein (enzyme)
